Results reported in patent publication US20230295348A1 (NOVIMMUNE, published 2023).

T1: human recombinant IL-2Rγ (human, UniProt P31785 23-262, limits assumed)
T1 construct: Biotinylated and captured on streptavidin plates in the ELISA; also called IL-2Rg; IL2Rg
T1 sequence (looked up): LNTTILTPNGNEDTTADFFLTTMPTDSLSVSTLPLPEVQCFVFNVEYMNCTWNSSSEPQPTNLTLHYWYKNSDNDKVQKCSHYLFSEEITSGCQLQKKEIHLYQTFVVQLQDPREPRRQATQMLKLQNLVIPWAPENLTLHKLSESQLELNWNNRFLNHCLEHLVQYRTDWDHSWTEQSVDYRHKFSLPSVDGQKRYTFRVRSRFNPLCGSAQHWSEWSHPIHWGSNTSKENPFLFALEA

B1: AM5O38 (bispecific antibody, human IgG1, kappa, lambda, L234A L235A)
heavy: not shown
light 1: not shown
light 2: QPVLTQPASLSASPGASASLTCTLRSGINVRDYRIFWYQQKPGSPPQYLLRYKSASDKQQGSGVPSRFSGSKDASANAGILLISGLQSEDEADYYCMIWHHDSEGHAFVFGGGTKLTVLGQPKAAPSVTLFPPSSEELQANKATLVCLISDFYPGAVTVAWKADSSPVKAGVETTTPSKQSNNKYAASSYLSLTPEQWKSHRSYSCQVTHEGSTVEKTVAPTECS
notes: κλ-body: common heavy chain, kappa anti-IL2Rγ light chain (AM5), lambda anti-MSLN light chain (O38); also called AM5O38/N
B2: AM5O35 (bispecific antibody, human IgG1, kappa, lambda, L234A L235A)
heavy: not shown
light 1: not shown
light 2: QPVLTQPVSLSASPGASVSLTCTLRSDIRVRDYRIFWYQQKPGSPPQYLLRYKTDSDKQQGSGVPSRFSGSKDASANAGILLISGLQSEDEADYYCMIWHRTTGTSLVFGGGTKLTVLGQPKAAPSVTLFPPSSEELQANKATLVCLISDFYPGAVTVAWKADSSPVKAGVETTTPSKQSNNKYAASSYLSLTPEQWKSHRSYSCQVTHEGSTVEKTVAPTECS
notes: κλ-body: common heavy chain, kappa anti-IL2Rγ light chain (AM5), lambda anti-MSLN light chain (O35); also called AM5O35/N
B3: AM1N2-19 (bispecific antibody, human IgG1, kappa, lambda, L234A L235A)
heavy: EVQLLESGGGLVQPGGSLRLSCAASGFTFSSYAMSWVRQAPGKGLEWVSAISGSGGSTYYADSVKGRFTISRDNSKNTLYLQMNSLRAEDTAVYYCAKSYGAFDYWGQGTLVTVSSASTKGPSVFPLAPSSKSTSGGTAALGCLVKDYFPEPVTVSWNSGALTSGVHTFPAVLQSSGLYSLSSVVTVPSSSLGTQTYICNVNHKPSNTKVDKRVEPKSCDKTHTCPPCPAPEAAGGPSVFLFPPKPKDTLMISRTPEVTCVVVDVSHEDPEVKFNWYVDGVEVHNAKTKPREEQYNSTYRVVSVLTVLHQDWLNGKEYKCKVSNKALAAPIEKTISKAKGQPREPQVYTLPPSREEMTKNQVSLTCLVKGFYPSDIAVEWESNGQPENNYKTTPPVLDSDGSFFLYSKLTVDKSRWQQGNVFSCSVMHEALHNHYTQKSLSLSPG
light 1: DIQMTQSPSSLSASVGDRVTITCRASQSIYYYLNWYQQKPGKAPKLLIYDASALQSGVPSRFSGSGSGTDFTLTISSLQPEDFATYYCQQIDFTAGSITFGQGTKVEIKRTVAAPSVFIFPPSDEQLKSGTASVVCLLNNFYPREAKVQWKVDNALQSGNSQESVTEQDSKDSTYSLSSTLTLSKADYEKHKVYACEVTHQGLSSPVTKSFNRGEC
light 2: QSVLTQPPSVSGAPGQRVTISCTGSSSNIENTHTVHWYQQLPGTAPKLLIYDASIRPSGVPDRFSGSKSGTSASLAITGLQAEDEADYYCQSYDWLRGAQVFGGGTKLTVLGQPKAAPSVTLFPPSSEELQANKATLVCLISDFYPGAVTVAWKADSSPVKAGVETTTPSKQSNNKYAASSYLSLTPEQWKSHRSYSCQVTHEGSTVEKTVAPTECS
notes: κλ-body: common heavy chain, kappa anti-IL2Rγ light chain (AM1), lambda anti-HER2 light chain (N2-19); also called AM1N2-19/N
B4: AM3N2-19 (bispecific antibody, human IgG1, kappa, lambda, L234A L235A)
heavy: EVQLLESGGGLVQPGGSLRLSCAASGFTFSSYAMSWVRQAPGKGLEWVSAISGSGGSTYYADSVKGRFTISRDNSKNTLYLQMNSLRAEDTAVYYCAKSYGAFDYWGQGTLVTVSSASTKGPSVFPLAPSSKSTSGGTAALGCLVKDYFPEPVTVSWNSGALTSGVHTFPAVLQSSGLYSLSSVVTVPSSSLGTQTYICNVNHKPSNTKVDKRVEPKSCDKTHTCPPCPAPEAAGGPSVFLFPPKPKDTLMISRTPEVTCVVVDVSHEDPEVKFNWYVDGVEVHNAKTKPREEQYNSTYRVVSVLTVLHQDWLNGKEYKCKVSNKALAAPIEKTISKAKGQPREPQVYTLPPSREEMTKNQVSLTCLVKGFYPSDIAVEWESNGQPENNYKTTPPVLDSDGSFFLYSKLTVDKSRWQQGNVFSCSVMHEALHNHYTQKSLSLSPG
light 1: DIQMTQSPSTLSASVGDTVTITCRASHYITTWLAWYQQKPGKAPKLLIYDVSSLESGVPSRFRGRGSGTEFTLTISSLQPDDFATYYCQQYESYSPTFGQGTKVEIKRTVAAPSVFIFPPSDEQLKSGTASVVCLLNNFYPREAKVQWKVDNALQSGNSQESVTEQDSKDSTYSLSSTLTLSKADYEKHKVYACEVTHQGLSSPVTKSFNRGEC
light 2: QSVLTQPPSVSGAPGQRVTISCTGSSSNIENTHTVHWYQQLPGTAPKLLIYDASIRPSGVPDRFSGSKSGTSASLAITGLQAEDEADYYCQSYDWLRGAQVFGGGTKLTVLGQPKAAPSVTLFPPSSEELQANKATLVCLISDFYPGAVTVAWKADSSPVKAGVETTTPSKQSNNKYAASSYLSLTPEQWKSHRSYSCQVTHEGSTVEKTVAPTECS
notes: κλ-body: common heavy chain, kappa anti-IL2Rγ light chain (AM3), lambda anti-HER2 light chain (N2-19); also called AM3N2-19/N
B5: AM6N2-19 (bispecific antibody, human IgG1, kappa, lambda, L234A L235A)
heavy: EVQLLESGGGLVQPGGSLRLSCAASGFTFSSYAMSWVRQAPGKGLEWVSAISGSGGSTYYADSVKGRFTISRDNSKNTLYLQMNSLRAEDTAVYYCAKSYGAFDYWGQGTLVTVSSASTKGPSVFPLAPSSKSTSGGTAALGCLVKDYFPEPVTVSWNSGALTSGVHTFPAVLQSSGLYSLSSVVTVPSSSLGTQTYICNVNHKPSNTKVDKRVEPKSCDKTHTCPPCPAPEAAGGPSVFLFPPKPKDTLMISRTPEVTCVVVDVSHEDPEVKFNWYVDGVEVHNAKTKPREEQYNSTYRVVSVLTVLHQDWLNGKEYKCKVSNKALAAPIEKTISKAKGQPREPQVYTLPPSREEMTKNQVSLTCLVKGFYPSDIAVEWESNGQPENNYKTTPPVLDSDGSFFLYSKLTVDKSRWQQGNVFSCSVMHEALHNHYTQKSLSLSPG
light 1: not shown
light 2: QSVLTQPPSVSGAPGQRVTISCTGSSSNIENTHTVHWYQQLPGTAPKLLIYDASIRPSGVPDRFSGSKSGTSASLAITGLQAEDEADYYCQSYDWLRGAQVFGGGTKLTVLGQPKAAPSVTLFPPSSEELQANKATLVCLISDFYPGAVTVAWKADSSPVKAGVETTTPSKQSNNKYAASSYLSLTPEQWKSHRSYSCQVTHEGSTVEKTVAPTECS
notes: κλ-body: common heavy chain, kappa anti-IL2Rγ light chain (AM6), lambda anti-HER2 light chain (N2-19); also called AM6N2-19/N
B6: AM9N2-19 (bispecific antibody, human IgG1, kappa, lambda, L234A L235A)
heavy: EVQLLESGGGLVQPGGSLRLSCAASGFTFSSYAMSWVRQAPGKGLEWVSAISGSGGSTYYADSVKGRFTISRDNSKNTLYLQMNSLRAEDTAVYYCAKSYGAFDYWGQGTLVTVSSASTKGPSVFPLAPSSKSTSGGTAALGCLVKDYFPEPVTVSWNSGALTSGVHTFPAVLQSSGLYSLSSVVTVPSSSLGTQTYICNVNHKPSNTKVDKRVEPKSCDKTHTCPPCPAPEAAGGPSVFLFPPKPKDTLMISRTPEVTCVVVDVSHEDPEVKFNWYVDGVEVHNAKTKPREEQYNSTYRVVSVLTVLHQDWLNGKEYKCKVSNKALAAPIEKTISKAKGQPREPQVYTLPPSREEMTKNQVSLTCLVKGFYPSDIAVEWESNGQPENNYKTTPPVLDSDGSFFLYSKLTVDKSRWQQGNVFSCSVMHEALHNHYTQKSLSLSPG
light 1: not shown
light 2: QSVLTQPPSVSGAPGQRVTISCTGSSSNIENTHTVHWYQQLPGTAPKLLIYDASIRPSGVPDRFSGSKSGTSASLAITGLQAEDEADYYCQSYDWLRGAQVFGGGTKLTVLGQPKAAPSVTLFPPSSEELQANKATLVCLISDFYPGAVTVAWKADSSPVKAGVETTTPSKQSNNKYAASSYLSLTPEQWKSHRSYSCQVTHEGSTVEKTVAPTECS
notes: κλ-body: common heavy chain, kappa anti-IL2Rγ light chain (AM9), lambda anti-HER2 light chain (N2-19); also called AM9N2-19/N
B7: AM2N2-19 (bispecific antibody, human IgG1, kappa, lambda, L234A L235A)
heavy: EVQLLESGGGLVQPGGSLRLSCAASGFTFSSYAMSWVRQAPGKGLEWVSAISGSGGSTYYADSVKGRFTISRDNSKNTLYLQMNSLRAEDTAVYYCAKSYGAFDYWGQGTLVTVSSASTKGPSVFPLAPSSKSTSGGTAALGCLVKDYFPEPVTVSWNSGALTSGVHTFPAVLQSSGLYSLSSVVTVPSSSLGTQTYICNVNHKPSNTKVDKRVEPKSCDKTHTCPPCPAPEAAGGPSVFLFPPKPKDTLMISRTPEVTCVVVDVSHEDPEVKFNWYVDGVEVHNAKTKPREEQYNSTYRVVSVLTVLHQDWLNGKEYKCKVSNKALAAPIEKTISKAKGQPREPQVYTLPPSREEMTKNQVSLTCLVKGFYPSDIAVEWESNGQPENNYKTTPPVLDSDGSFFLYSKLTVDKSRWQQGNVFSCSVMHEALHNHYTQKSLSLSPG
light 1: DIQLTQSPSFLSASVGDRVTITCRASQTIDAPLRWYQQKPGKAPKLLIYLTSSLQSGVPSRFSGSGSGTEFTLTISSLQPEDFATYYCQQGYAAGPSTFGQGTKVEIKRTVAAPSVFIFPPSDEQLKSGTASVVCLLNNFYPREAKVQWKVDNALQSGNSQESVTEQDSKDSTYSLSSTLTLSKADYEKHKVYACEVTHQGLSSPVTKSFNRGEC
light 2: QSVLTQPPSVSGAPGQRVTISCTGSSSNIENTHTVHWYQQLPGTAPKLLIYDASIRPSGVPDRFSGSKSGTSASLAITGLQAEDEADYYCQSYDWLRGAQVFGGGTKLTVLGQPKAAPSVTLFPPSSEELQANKATLVCLISDFYPGAVTVAWKADSSPVKAGVETTTPSKQSNNKYAASSYLSLTPEQWKSHRSYSCQVTHEGSTVEKTVAPTECS
notes: κλ-body: common heavy chain, kappa anti-IL2Rγ light chain (AM2), lambda anti-HER2 light chain (N2-19); also called AM2N2-19/N
B8: AM7N2-19 (bispecific antibody, human IgG1, kappa, lambda, L234A L235A)
heavy: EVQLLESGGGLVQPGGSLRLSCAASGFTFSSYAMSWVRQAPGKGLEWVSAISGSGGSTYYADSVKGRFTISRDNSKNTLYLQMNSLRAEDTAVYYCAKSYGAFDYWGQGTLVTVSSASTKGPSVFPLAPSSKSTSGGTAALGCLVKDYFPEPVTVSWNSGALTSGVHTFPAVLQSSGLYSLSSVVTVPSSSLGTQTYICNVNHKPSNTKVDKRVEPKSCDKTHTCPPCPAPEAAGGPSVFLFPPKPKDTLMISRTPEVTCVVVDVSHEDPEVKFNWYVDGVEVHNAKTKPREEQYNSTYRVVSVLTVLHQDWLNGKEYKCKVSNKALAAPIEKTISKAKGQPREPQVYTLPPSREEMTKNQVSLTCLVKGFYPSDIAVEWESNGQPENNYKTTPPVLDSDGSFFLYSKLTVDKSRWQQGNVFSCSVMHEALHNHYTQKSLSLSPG
light 1: DIQLTQSPSFLSASVGDRVTITCRASQDIGIELAWYQQKPGKAPKLLIYFESHLQSGVPSRFSGSGSGTEFTLTISSLQPEDFATYYCQQIRIDPTFGQGTKVEIKRTVAAPSVFIFPPSDEQLKSGTASVVCLLNNFYPREAKVQWKVDNALQSGNSQESVTEQDSKDSTYSLSSTLTLSKADYEKHKVYACEVTHQGLSSPVTKSFNRGEC
light 2: QSVLTQPPSVSGAPGQRVTISCTGSSSNIENTHTVHWYQQLPGTAPKLLIYDASIRPSGVPDRFSGSKSGTSASLAITGLQAEDEADYYCQSYDWLRGAQVFGGGTKLTVLGQPKAAPSVTLFPPSSEELQANKATLVCLISDFYPGAVTVAWKADSSPVKAGVETTTPSKQSNNKYAASSYLSLTPEQWKSHRSYSCQVTHEGSTVEKTVAPTECS
notes: κλ-body: common heavy chain, kappa anti-IL2Rγ light chain (AM7), lambda anti-HER2 light chain (N2-19); also called AM7N2-19/N
B9: AM8N2-19 (bispecific antibody, human IgG1, kappa, lambda, L234A L235A)
heavy: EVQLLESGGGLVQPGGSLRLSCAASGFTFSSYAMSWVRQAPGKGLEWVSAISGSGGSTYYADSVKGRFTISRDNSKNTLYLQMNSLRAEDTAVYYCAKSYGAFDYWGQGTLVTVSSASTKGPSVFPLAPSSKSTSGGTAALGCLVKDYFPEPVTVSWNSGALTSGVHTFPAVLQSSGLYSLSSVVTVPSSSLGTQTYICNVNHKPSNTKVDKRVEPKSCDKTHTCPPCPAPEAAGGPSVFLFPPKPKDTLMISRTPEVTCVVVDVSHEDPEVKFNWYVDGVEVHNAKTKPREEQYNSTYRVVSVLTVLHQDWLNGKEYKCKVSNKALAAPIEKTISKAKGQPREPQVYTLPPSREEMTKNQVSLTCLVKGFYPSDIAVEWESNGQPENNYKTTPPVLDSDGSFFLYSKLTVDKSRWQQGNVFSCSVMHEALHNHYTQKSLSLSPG
light 1: EIVLTQSPGTLSLSPGERATLSCRASQDVATRGLAWYQQKPGQAPRLLIYGASSRATGIPDRFSGSGSGTDFTLTISRLEPEDFAVYYCQQYELEHPATFGQGTKVEIKRTVAAPSVFIFPPSDEQLKSGTASVVCLLNNFYPREAKVQWKVDNALQSGNSQESVTEQDSKDSTYSLSSTLTLSKADYEKHKVYACEVTHQGLSSPVTKSFNRGEC
light 2: QSVLTQPPSVSGAPGQRVTISCTGSSSNIENTHTVHWYQQLPGTAPKLLIYDASIRPSGVPDRFSGSKSGTSASLAITGLQAEDEADYYCQSYDWLRGAQVFGGGTKLTVLGQPKAAPSVTLFPPSSEELQANKATLVCLISDFYPGAVTVAWKADSSPVKAGVETTTPSKQSNNKYAASSYLSLTPEQWKSHRSYSCQVTHEGSTVEKTVAPTECS
notes: κλ-body: common heavy chain, kappa anti-IL2Rγ light chain (AM8), lambda anti-HER2 light chain (N2-19); also called AM8N2-19/N
B10: AM10N2-19 (bispecific antibody, human IgG1, kappa, lambda, L234A L235A)
heavy: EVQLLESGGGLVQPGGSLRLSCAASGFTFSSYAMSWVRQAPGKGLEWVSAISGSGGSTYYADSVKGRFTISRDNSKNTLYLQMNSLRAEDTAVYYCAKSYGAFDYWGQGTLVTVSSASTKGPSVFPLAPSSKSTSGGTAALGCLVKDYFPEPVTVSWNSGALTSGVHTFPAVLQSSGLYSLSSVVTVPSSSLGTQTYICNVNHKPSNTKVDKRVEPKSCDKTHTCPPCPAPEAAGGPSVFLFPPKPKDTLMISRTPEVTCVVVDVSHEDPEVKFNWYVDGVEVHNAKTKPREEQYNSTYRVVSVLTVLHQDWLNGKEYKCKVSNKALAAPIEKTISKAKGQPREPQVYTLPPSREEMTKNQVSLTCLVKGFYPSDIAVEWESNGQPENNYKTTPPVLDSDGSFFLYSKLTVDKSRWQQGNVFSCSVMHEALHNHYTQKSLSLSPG
light 1: not shown
light 2: QSVLTQPPSVSGAPGQRVTISCTGSSSNIENTHTVHWYQQLPGTAPKLLIYDASIRPSGVPDRFSGSKSGTSASLAITGLQAEDEADYYCQSYDWLRGAQVFGGGTKLTVLGQPKAAPSVTLFPPSSEELQANKATLVCLISDFYPGAVTVAWKADSSPVKAGVETTTPSKQSNNKYAASSYLSLTPEQWKSHRSYSCQVTHEGSTVEKTVAPTECS
notes: κλ-body: common heavy chain, kappa anti-IL2Rγ light chain (AM10), lambda anti-HER2 light chain (N2-19); also called AM10N2-19/N
B11: AM4N2-19 (bispecific antibody, human IgG1, kappa, lambda, L234A L235A)
heavy: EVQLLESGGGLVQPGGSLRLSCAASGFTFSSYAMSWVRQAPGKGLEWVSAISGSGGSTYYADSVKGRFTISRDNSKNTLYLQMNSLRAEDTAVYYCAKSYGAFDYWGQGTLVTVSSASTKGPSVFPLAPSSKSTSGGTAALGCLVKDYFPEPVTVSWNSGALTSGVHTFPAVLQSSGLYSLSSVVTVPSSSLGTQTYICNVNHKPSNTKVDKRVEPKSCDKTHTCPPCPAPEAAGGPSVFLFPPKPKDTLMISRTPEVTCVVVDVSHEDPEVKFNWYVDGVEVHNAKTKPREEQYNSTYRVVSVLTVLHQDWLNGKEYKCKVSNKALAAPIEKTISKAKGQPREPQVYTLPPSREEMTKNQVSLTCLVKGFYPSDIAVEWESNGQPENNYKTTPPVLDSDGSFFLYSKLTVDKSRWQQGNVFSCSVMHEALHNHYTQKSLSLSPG
light 1: DIQMTQSPSTLSASVGDRVTITCRASQTIYGPLNWYQQKPGKAPKLLIYSTSYLESGVPSRFSGSGSGTEFTLTISSLQPDDFATYYCQQAGYASAPTFGQGTKVEIKRTVAAPSVFIFPPSDEQLKSGTASVVCLLNNFYPREAKVQWKVDNALQSGNSQESVTEQDSKDSTYSLSSTLTLSKADYEKHKVYACEVTHQGLSSPVTKSFNRGEC
light 2: QSVLTQPPSVSGAPGQRVTISCTGSSSNIENTHTVHWYQQLPGTAPKLLIYDASIRPSGVPDRFSGSKSGTSASLAITGLQAEDEADYYCQSYDWLRGAQVFGGGTKLTVLGQPKAAPSVTLFPPSSEELQANKATLVCLISDFYPGAVTVAWKADSSPVKAGVETTTPSKQSNNKYAASSYLSLTPEQWKSHRSYSCQVTHEGSTVEKTVAPTECS
notes: κλ-body: common heavy chain, kappa anti-IL2Rγ light chain (AM4), lambda anti-HER2 light chain (N2-19); also called AM4N2-19/N
B12: AM5N2-19 (bispecific antibody, human IgG1, kappa, lambda, L234A L235A)
heavy: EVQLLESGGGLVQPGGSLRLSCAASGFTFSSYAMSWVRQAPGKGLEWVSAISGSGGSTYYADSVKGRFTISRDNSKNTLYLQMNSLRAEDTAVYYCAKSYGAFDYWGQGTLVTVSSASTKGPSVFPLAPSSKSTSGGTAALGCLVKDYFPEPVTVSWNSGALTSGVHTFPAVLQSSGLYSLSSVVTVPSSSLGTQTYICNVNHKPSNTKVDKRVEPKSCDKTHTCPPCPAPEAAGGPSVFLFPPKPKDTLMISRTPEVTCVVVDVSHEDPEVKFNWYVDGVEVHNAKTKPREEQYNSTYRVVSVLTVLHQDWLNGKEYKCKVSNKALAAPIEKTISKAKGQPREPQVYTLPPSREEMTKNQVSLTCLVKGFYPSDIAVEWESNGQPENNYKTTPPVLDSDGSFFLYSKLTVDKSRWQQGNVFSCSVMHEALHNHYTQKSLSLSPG
light 1: not shown
light 2: QSVLTQPPSVSGAPGQRVTISCTGSSSNIENTHTVHWYQQLPGTAPKLLIYDASIRPSGVPDRFSGSKSGTSASLAITGLQAEDEADYYCQSYDWLRGAQVFGGGTKLTVLGQPKAAPSVTLFPPSSEELQANKATLVCLISDFYPGAVTVAWKADSSPVKAGVETTTPSKQSNNKYAASSYLSLTPEQWKSHRSYSCQVTHEGSTVEKTVAPTECS
notes: κλ-body: common heavy chain, kappa anti-IL2Rγ light chain (AM5), lambda anti-HER2 light chain (N2-19); also called AM5N2-19/N
B13: AM11N2-19 (bispecific antibody, human IgG1, kappa, lambda, L234A L235A)
heavy: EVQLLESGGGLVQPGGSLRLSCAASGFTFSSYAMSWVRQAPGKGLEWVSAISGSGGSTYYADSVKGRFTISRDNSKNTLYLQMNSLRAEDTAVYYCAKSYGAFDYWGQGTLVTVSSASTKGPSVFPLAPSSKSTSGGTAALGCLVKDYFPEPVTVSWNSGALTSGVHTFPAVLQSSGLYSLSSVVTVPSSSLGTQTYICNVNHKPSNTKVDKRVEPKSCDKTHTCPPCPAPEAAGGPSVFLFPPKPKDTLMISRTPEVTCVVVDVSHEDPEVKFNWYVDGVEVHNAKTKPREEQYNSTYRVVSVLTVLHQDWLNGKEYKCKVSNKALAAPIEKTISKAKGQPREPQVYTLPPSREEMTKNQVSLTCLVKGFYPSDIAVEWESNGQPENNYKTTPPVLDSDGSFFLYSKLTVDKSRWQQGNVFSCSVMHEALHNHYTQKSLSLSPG
light 1: EIVLTQSPGTLSLSPGERATLSCRASQNVNHNFLTWYQQKPGQAPRLLIYSASARATGIPDRFSGSGSGTDFTLTISRLEPEDFAVYYCQQFNYAPLTFGQGTKVEIKRTVAAPSVFIFPPSDEQLKSGTASVVCLLNNFYPREAKVQWKVDNALQSGNSQESVTEQDSKDSTYSLSSTLTLSKADYEKHKVYACEVTHQGLSSPVTKSFNRGEC
light 2: QSVLTQPPSVSGAPGQRVTISCTGSSSNIENTHTVHWYQQLPGTAPKLLIYDASIRPSGVPDRFSGSKSGTSASLAITGLQAEDEADYYCQSYDWLRGAQVFGGGTKLTVLGQPKAAPSVTLFPPSSEELQANKATLVCLISDFYPGAVTVAWKADSSPVKAGVETTTPSKQSNNKYAASSYLSLTPEQWKSHRSYSCQVTHEGSTVEKTVAPTECS
notes: κλ-body: common heavy chain, kappa anti-IL2Rγ light chain (AM11), lambda anti-HER2 light chain (N2-19); also called AM11N2-19/N
B14: AM5O41 (bispecific antibody, human IgG1, kappa, lambda, L234A L235A)
heavy: not shown
light 1: not shown
light 2: SYVLTQPPSVSVAPGKTARITCGGNKIGHRAVHWYQQKPGQAPVLVIYYTYERPSGIPERFSGSNSGNTATLTISRVEAGDEADYYCQVWDWYSEGGVVFGGGTKLTVLGQPKAAPSVTLFPPSSEELQANKATLVCLISDFYPGAVTVAWKADSSPVKAGVETTTPSKQSNNKYAASSYLSLTPEQWKSHRSYSCQVTHEGSTVEKTVAPTECS
notes: κλ-body: common heavy chain, kappa anti-IL2Rγ light chain (AM5), lambda anti-MSLN light chain (O41); also called AM5O41/N

Tests used:
human recombinant IL-2Rγ = molecular target: T1, human recombinant IL-2Rγ; assay: direct ELISA, biotinylated recombinant protein on streptavidin plates
human recombinant HER2 = molecular target: T2, human recombinant HER2 (human, UniProt P04626 23-652); assay: as above
T2 construct: Biotinylated and captured on streptavidin plates in the ELISA; also called human epidermal growth factor receptor 2

Row | Binder | binding result (human recombinant IL-2Rγ) | binding result (human recombinant HER2)
1 | B1 | binds | –
2 | B2 | binds | –
3 | B3 | binds | binds
4 | B4 | binds | binds
5 | B5 | binds | binds
6 | B6 | binds | binds
7 | B7 | binds | binds
8 | B8 | binds | binds
9 | B9 | binds | binds
10 | B10 | binds | binds
11 | B11 | binds | binds
12 | B12 | binds | binds
13 | B13 | binds | binds
14 | B14 | binds | –
